Reference: the supplement of paper PMC10724198
± gives the standard deviation of the averaged measurements.

Assays:
Saccharomyces cerevisiae [1] = test: protein stability index of tFT-peptide fusion (C-terminal peptide) (PSI (0-1 scale)); higher = more stable (slower turnover)
Method: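 MPS profiling in S. cerevisiae of the tFT-X12 degron library: putative degron peptides plus stable controls, 12 aa, fused to the C-terminus of a sfGFP-mCherry timer. Cells are FACS-sorted into 8 mCherry/sfGFP bins and deep-sequenced. PSI runs from 0 (unstable) to 1 (stable). Backgrounds are wild type, das1Δ and doa10Δ at 30 °C, and wild type, das1Δ, cdc34-1 and cdc53-1 at 37 °C; 2-3 technical replicates each.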

Saccharomyces cerevisiae [2] = test: as above; conditions: genetic background: wild type; temperature: 30 C
[3] = genetic background: cdc34-1, temperature: 37 C
[4] = genetic background: cdc53-1, temperature: 37 C
[5] = genetic background: das1 deletion, temperature: 30 C
[6] = genetic background: das1 deletion, temperature: 37 C
[7] = genetic background: doa10 deletion, temperature: 30 C
[8] = genetic background: wild type, temperature: 30 C
[9] = genetic background: wild type, temperature: 37 C
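Note: PSI is a weighted mean of sequencing reads over stability bins, variants kept only with over 10 reads, mCherry proximal and sfGFP distal, peptide attached via GGGS linker.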

Sequence	protein stability index (Saccharomyces cerevisiae [1]; [3])	protein stability index (Saccharomyces cerevisiae [1]; [4])	protein stability index (Saccharomyces cerevisiae [1]; [5])	protein stability index (Saccharomyces cerevisiae [1]; [6])	protein stability index (Saccharomyces cerevisiae [1]; [7])	protein stability index (Saccharomyces cerevisiae [1]; [8])	protein stability index (Saccharomyces cerevisiae [1]; [9])	protein stability index (Saccharomyces cerevisiae [2])
GAVRRWGWVSFV	0.633 ± 0.052	0.7476 ± 0.0049	0.6425 ± 0.0039	0.744 ± 0.013	0.173 ± 0.0068	0.193 ± 0.0085	0.393 ± 0.004	0.331 ± 0.044
GFALGSFMLVLR	0.0226 ± 0.0077	0.0469 ± 0.019	0.0861 ± 0.012	0.0844 ± 0.0018	0.596 ± 0.037	0.0702 ± 0.012	0.0617 ± 0.0078	0.0977 ± 0.0089
CVFFCVLVCFLS	0.342 ± 0.0056	0.382 ± 0.023	0.302 ± 0.048	0.439 ± 0.006	0.317 ± 0.0066	0.3 ± 0.027	0.377 ± 0.0062	0.369 ± 0.036
VFGCHHLEVSVC	0.248 ± 0.012	0.267 ± 0.0036	0.259 ± 0.034	0.377 ± 0.0065	0.203 ± 0.012	0.241 ± 0.024	0.34 ± 0.012	0.34 ± 0.0065
SVGWGFWARFIG	0.686 ± 0.057	0.756 ± 0.013	0.665 ± 0.014	0.772 ± 0.0086	0.215 ± 0.016	0.253 ± 0.017	0.434 ± 0.018	0.379 ± 0.069
CCSGWSVRLLCV	0.578 ± 0.066	0.606 ± 0.036	0.494 ± 0.033	0.625 ± 0.025	0.243 ± 0.0063	0.269 ± 0.024	0.375 ± 0.0046	0.37 ± 0.025
VVLGLFCVRMGT	0.541 ± 0.018	0.606 ± 0.019	0.454 ± 0.031	0.6108 ± 0.0044	0.418 ± 0.01	0.451 ± 0.02	0.5718 ± 0.0034	0.522 ± 0.031
FRYLRPAFLLLH	0.162 ± 0.071	0.255 ± 0.029	0.355 ± 0.027	0.442 ± 0.0055	0.0693 ± 0.00084	0.0405 ± 0.019	0.0854 ± 0.02	0.0906 ± 0.031
FFRFCFLLLASS	0.303 ± 0.011	0.335 ± 0.01	0.221 ± 0.024	0.4 ± 0.01	0.197 ± 0.019	0.188 ± 0.013	0.355 ± 0.011	0.25 ± 0.061
LISRGNRALFCI	0.678 ± 0.044	0.739 ± 0.013	0.589 ± 0.017	0.755 ± 0.029	0.204 ± 0.015	0.224 ± 0.03	0.482 ± 0.016	0.314 ± 0.02
FVEFCFWCFWVV	0.481 ± 0.008	0.575 ± 0.032	0.407 ± 0.012	0.578 ± 0.026	0.351 ± 0.022	0.361 ± 0.026	0.499 ± 0.0043	0.426 ± 0.005
RVYLLGLFVRSG	0.552 ± 0.035	0.61 ± 0.014	0.409 ± 0.04	0.632 ± 0.021	0.325 ± 0.017	0.371 ± 0.031	0.574 ± 0.033	0.491 ± 0.0076
RHVFLRIKVLNL	0.564 ± 0.11	0.644 ± 0.051	0.52 ± 0.016	0.5596 ± 0.0049	0.344 ± 0.0053	0.397 ± 0.015	0.5197 ± 0.0025	0.489 ± 0.085
LGKSTLYMALNN	0.587 ± 0.057	0.716 ± 0.036	0.611 ± 0.011	0.695 ± 0.017	0.273 ± 0.013	0.309 ± 0.038	0.571 ± 0.11	0.402 ± 0.047
GFFFYFVLFGLS	0.34 ± 0.061	0.409 ± 0.0011	0.29 ± 0.015	0.47314 ± 0.00013	0.285 ± 0.011	0.268 ± 0.018	0.446 ± 0.016	0.409 ± 0.0059
YRFVWRWIPICA	0.0342 ± 0.01	0.0919 ± 0.045	0.12 ± 0.038	0.116 ± 0.032	0.0307 ± 0.0093	0.038 ± 0.014	0.057 ± 0.026	0.0631 ± 0.022
GFFFLFFVSAFI	0.368 ± 0.021	0.4553 ± 0.0027	0.327 ± 0.034	0.485 ± 0.011	0.2992 ± 0.0012	0.311 ± 0.064	0.445 ± 0.0067	0.407 ± 0.026
SFTRYIFFLMFF	0.438 ± 0.051	0.475 ± 0.037	0.417 ± 0.023	0.585 ± 0.021	0.4089 ± 0.0013	0.325 ± 0.017	0.456 ± 0.0069	0.355 ± 0.015
DVRLVLCEMIKG	0.587 ± 0.048	0.6123 ± 0.0027	0.414 ± 0.028	0.624 ± 0.0012	0.394 ± 0.021	0.426 ± 0.021	0.601 ± 0.0076	0.513 ± 0.036
LDRLTTWTLIVR	0.457 ± 0.031	0.455 ± 0.011	0.379 ± 0.026	0.524 ± 0.0076	0.413 ± 0.0057	0.365 ± 0.021	0.482 ± 0.0083	0.471 ± 0.031
